Reference: article PMC7800377

How the values were obtained:
[1] = target: SUN domain of human SUN1 (amino acid residues 616–812), tags removed (human); assay: SEC-MALS; co-expressed and co-purified samples at >1 mg/ml on Superdex 200 Increase 10/300 GL in 20 mM Tris pH 8.0, 150 mM KCl, 2 mM DTT
[2] = target: SUN domain of human SUN1 (amino acid residues 616–812), tags removed (human); assay: SEC-MALS; SUN1-KASH4 after removal of bound zinc by treatment with EDTA
[3] = target: SUN1 I673E (SUN domain of human SUN1, residues 616–812, I673E), GCN4 tag removed (human); assay: SEC-MALS; co-expressed and co-purified samples at >1 mg/ml on Superdex 200 Increase 10/300 GL in 20 mM Tris pH 8.0, 150 mM KCl, 2 mM DTT

| Binder | stoichiometry N (binder:target ratio (6:6)) [1] | stoichiometry N (binder:target ratio (6:6)) [2] | stoichiometry N (binder:target ratio (12:12)) [2] | stoichiometry N (binder:target ratio (6:6)) [3] |
| --- | --- | --- | --- | --- |
| GPSPPPTWPHLQLCYLQPPPV (domain or fragment) [KASH domain of human KASH5 (amino acid residues 542–562), tags removed] | 1 |  |  |  |
| ASGGPCCSHARIPRTPYLVLSYVNGLPPV (domain or fragment) [KASH domain of human Nesprin-4 (KASH4, amino acid residues 376–404), tags removed] | 1 | 1 | 1 | 1 |
